What was measured:
[1] = test system: CD40-mediated immune cell activation; conditions: cited from earlier work
[2] = test system: IFN-γ, MCP-1, B cell margination, B cell activation; test: OPTIMIZE-1 peripheral blood pharmacodynamics (cytokines/chemokines, immunophenotyping); format: in vivo, human; conditions: 450 and 900 μg/kg mitazalimab
Excerpt: The aim with the pharmacodynamic biomarkers is to characterize changes in intratumoural and systemic immune activation associated with mode of action of mitazalimab and correlate pharmacodynamic effects with clinical response. Disease progression and treatment response will also be followed with liquid biopsies, analysing biomarkers such as Carbohydrate antigen 19-9 (CA19-9) and circulating tumour DNA (ctDNA). All biomarker analyses in blood and tumour biopsies may be exploratory in nature. All exploratory analyses were performed at a fit-for-purpose laboratory, as the data from the analyses are for scientific use and decision making only. […]
Different types of blood samples will be taken and the following pharmacodynamic biomarkers may be evaluated: • Cytokines and chemokines: Serum samples are to be analysed for levels of cytokines and chemokines involved in the immune activation of mitazalimab, including but not limited to IFN-γ, TNF-α, IL12p70, IL-6, MCP-1, IP-10, MIP-1α, MIP-1β and IL-8; e.g., using a 30-plex kit with Luminex, MSD or similar. • Immune phenotyping: Whole blood samples will be used for immunophenotyping of whole blood for quantification of immune cell populations and immune cell activation directly or indirectly involved with immune activation of mitazalimab using flow cytometry. […]

[3] = OPTIMIZE-1 safety and tolerability (AEs, DLTs, RP2D; CTCAE v5.0); format: in vivo
Procedure: Two dose levels, 450 μg/kg and 900 μg/kg, of mitazalimab were planned to be administered in combination with mFOLFIRINOX in Part 1. During the first treatment cycle (the first 21 days) for each patient, mitazalimab was administered on Day 1 and Day 10 and mFOLFIRINOX infusion started on Day 8. During the following 14-day treatment cycles, mFOLFIRINOX was administered on Day 1 and mitazalimab on Day 3 of each cycle, see FIG. 3. In case the number of DLTs for a dose level fulfilled the stop criteria, see Table 3 Escalation rules based on number of patients with DLTs, at the lowest dose level of mitazalimab, the chemotherapy mFOLFIRINOX could be exchanged to the chemotherapy gemcitabine plus nab-paclitaxel, as illustrated in FIG. 2. If changing the chemotherapy from mFOLFIRINOX to gemcitabine plus nab-paclitaxel, see dosage schedule in Example 5.
The dose escalation in Part 1 follows a BOIN design with at least 3 evaluable patients per dose level. According to the BOIN design, each time a cohort of patients has been completed, a decision is made whether the next cohort should remain on the same dose, escalate to the next higher dose level or de-escalate to the next lower dose level, according to the decision rules presented in Table 3 below. A range of 3-9 patients was included at each dose level. In this study, the de-escalation from 450 μg/kg mitazalimab in combination with mFOLFIRINOX was a change of chemotherapy to gemcitabine plus nab-paclitaxel as previously described.
Mitazalimab in combination with mFOLFIRINOX: The DLT evaluation period is defined as the time from the first dose of mitazalimab (Day 1) until Day 21 in the first treatment cycle (Cycle 1). Mitazalimab in combination with gemcitabine plus nab-paclitaxel: The DLT evaluation period is defined as the time from the first dose of mitazalimab (Day 1) until Day 28 within the first treatment cycle of 35 days (Cycle 1). This period enabled the DRC to evaluate for early safety of mitazalimab together with the chemotherapy combination.
The same DLT criteria applied for mitazalimab in combination with mFOLFIRINOX and gemcitabine plus nab-paclitaxel. A DLT was considered related to study treatment unless there is a clear, well-documented, alternative explanation for the adverse event (AE). AEs that meet the above criteria but occur after the DLT evaluation period were not defined as DLTs, unless the onset of the event was during the DLT evaluation period. The event could be reported as AEs/Serious adverse events (SAEs), as applicable.
Number or patients experiencing AEs and number of events were summarized by SOC and preferred term. In addition, the following AEs were presented: • Incidence of DLT (Part 1); • AEs Grade 3 or higher; • Serious AEs; • AEs leading to discontinuation of study treatment; and • AEs leading to death.
The safety set comprised all patients that received any study treatment (mitazalimab) and was used for all endpoints related to the safety objectives.
The objective of the first (Phase 1b) part of the study was to determine the RP2D of mitazalimab+mFOLFIRINOX. Mitazalimab was escalated from 450 μg/kg to 900 μg/kg following a Bayesian optimal interval design with at least 3 patients enrolled per dose level. In the first 21-day treatment cycle (Dose Limiting Toxicity assessment period), mitazalimab was administered intravenously on days 1 and 10 and mFOLFIRINOX starts on day 8. In the second and subsequent cycles, treatment followed a 14-day cycle schedule where mitazalimab was administered 2 days after mFOLFIRINOX.

B1: Mitazalimab: agonistic, human monoclonal (IgG1) antibody targeting CD40 (antibody, chains of the INN, looked up, V domains shown)
VH: EVQLLESGGGLVQPGGSLRLSCAASGFTFSTYGMHWVRQAPGKGLEWLSYISGGSSYIFYADSVRGRFTISRDNSENALYLQMNSLRAEDTAVYYCARILRGGSGMDLWGQGTLVTVSS
VL: QSVLTQPPSASGTPGQRVTISCTGSSSNIGAGYNVYWYQQLPGTAPKLLIYGNINRPSGVPDRFSGSKSGTSASLAISGLRSEDEADYYCAAWDKSISGLVFGGGTKLTVL
With B1 as the molecule, how does the “NK cells and T cells in peripheral blood after infusion” value ([1]; all doses except 75 μg/kg) read?
Its value is “decreased”.

What about the “B cells in peripheral blood after IV administration” value ([1]; all doses tested, dose-dependent recovery) of the same molecule?
The value was “margination of B cells was observed”.

What about the “time of peak of peripheral MCP-1, IP-10 and MIP-1B chemokines post-infusion” value ([1]; in vivo, ip) of the same molecule?
The value was 1 to 4 h.

And the “CD40 receptor occupancy on B cells” value ([1]; in vivo)?
The value was “dose dependent”.

What about the “IL-6 levels following infusion” value ([1]; in vivo) of the same molecule?
The value was “not elevated”.

What about the “duration of CD40 engagement post administration” value ([1]; in vivo) of the same molecule?
Its value is “through Day 8”.

And the “recovery of NK cell and T cell levels” value ([1]; in vivo)?
The value was “fully recovered by study Day 8”.

And the “cytokines and chemokines (IFN-γ, MCP-1) in peripheral blood” value [2]?
Its value is “increases in peripheral blood were observed”.

And the AESIs ([3]; in vivo)?
The AESIs was “None”.

And the DLTs ([3]; in vivo)?
The DLTs was “G3 Headache”.

What about the “DLTs, %” value ([3]; in vivo) of the same molecule?
The value was “(9.1) %”.

And the “Discontinued treatment: Unacceptable toxicity, percentage of patients” value ([3]; in vivo)?
Its value is “(11.6) %”.

What about the “Discontinued treatment: Unacceptable toxicity, percentage relative to number discontinued” value ([3]; in vivo) of the same molecule?
Its value is 15.4%.

And the “Grade 1 or 2 TEAEs, %” value ([3]; in vivo)?
The value was 81.8%.

And the “Grade 3 TEAEs, %” value ([3]; in vivo)?
Its value is 36.4%.

What about the “Mitazalimab Related Adverse Events: Grade 1 or 2 TEAEs, %” value ([3]; in vivo) of the same molecule?
The value was “(72.7) %”.

What about the “Mitazalimab Related Adverse Events: Grade 3 TEAEs, %” value ([3]; in vivo) of the same molecule?
Its value is “(9.1) %”.

And the “Mitazalimab Related Adverse Events: patients with any TEAEs, %” value ([3]; in vivo)?
The value was “(72.7) %”.

And the “Mitazalimab-related Grade 1-2 Fatigue” value ([3]; in vivo)?
Its value is 3.

And the “Mitazalimab-related Grade 1-2 Fever or similar” value ([3]; in vivo)?
The value was 6.

What about the “Mitazalimab-related Grade 3 Fatigue” value ([3]; in vivo) of the same molecule?
Its value is 2.

What about the “Mitazalimab-related Grade 3 Headache” value ([3]; in vivo) of the same molecule?
Its value is 1.

And the “Mitazalimab-related Grade 3 Hypokalemia” value ([3]; in vivo)?
Its value is 1.

What about the “Patients with any TEAEs, %” value ([3]; in vivo) of the same molecule?
The value was 81.8%.

And the “Mitazalimab-related Grade 1-2 Flu/muscle ache” value ([3]; of 11 patients at 2 dose levels)?
Its value is 5.
